One block for each molecule: values may come before it.
B2: Recombinant human cold-inducible RNA-binding protein (rhCIRP) (natural protein, UniProt Q14011-1 1-172, looked up)
chain: MASDEGKLFVGGLSFDTNEQSLEQVFSKYGQISEVVVVKDRETQRSRGFGFVTFENIDDAKDAMMAMNGKSVDGRQIRVDQAGKSSDNRSRGYRGGSAGGRGFFRGGRGRGRGFSRGGGDRGYGGNRFESRSGGYGGSRDYYSSRSQSGGYSDRSSGGSYRDSYDSYATHNE

Key:
MD2 (Homo sapiens) = MD2 (Homo sapiens) (UniProt Q9Y6Y9); conditions: cited from earlier work
TLR4/MD2 (Homo sapiens) = TLR4/MD2 (Homo sapiens) (UniProt O00206); experiment: SPR; conditions: cited from earlier work
TLR4 (Homo sapiens) = TLR4 (Homo sapiens) (UniProt O00206); conditions: cited from earlier work
[1] = target: B2; experiment: SPR
[2] = target: Recombinant human TLR4 (rhTLR4), Glu24-Lys631 (human, UniProt O00206 24-631); experiment: SPR
[3] = target: Recombinant human TLR4/MD2 complex (rhTLR4/MD2) (human, UniProt O00206 24-631; Q9Y6Y9 17-160); experiment: SPR
[4] = target: Recombinant human RAGE (rhRAGE), Ala23-Ala344 (human, UniProt Q15109 23-344); experiment: SPR
[5] = target: Recombinant human TLR2 (rhTLR2), Glu21-Leu590 (human, UniProt O60603 21-590); experiment: SPR
Chain of Recombinant human TLR2 (rhTLR2), Glu21-Leu590 (O60603 21-590): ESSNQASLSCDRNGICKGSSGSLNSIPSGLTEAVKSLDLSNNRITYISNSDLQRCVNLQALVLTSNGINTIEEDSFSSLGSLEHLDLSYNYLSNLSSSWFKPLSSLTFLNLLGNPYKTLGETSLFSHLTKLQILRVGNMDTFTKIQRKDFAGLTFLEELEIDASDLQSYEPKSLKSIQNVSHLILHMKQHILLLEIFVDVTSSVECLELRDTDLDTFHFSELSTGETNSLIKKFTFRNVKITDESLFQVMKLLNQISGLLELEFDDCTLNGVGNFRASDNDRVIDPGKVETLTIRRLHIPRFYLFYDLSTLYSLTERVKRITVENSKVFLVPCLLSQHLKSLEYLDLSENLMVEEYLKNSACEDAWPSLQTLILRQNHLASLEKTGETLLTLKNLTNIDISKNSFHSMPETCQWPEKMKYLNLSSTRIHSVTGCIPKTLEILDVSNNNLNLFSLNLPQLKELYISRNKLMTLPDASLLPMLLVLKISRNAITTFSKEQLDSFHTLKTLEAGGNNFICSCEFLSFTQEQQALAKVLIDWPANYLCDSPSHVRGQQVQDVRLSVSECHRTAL

Chain of Recombinant human TLR4 (rhTLR4), Glu24-Lys631 (O00206 24-631): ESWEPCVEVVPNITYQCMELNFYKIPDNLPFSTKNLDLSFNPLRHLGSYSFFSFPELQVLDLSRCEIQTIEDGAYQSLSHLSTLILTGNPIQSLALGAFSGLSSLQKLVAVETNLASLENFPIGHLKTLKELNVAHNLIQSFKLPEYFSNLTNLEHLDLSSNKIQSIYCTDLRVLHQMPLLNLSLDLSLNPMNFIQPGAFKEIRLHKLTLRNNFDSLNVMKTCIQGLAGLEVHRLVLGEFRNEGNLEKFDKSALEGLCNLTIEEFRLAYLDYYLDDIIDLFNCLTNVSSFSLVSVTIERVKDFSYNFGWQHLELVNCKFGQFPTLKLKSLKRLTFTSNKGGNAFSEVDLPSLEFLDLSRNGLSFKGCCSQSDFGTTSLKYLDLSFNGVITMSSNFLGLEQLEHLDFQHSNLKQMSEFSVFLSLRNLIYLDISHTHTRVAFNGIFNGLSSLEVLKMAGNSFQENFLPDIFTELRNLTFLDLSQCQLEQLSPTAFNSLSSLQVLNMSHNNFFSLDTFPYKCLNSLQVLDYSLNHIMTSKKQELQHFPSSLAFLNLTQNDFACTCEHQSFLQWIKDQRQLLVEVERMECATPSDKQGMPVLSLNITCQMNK
Chain of TLR4 (Homo sapiens) (O00206 24-631): as above
Chain of Recombinant human TLR4/MD2 complex (rhTLR4/MD2) (O00206 24-631, one chain of several): as the sequence (O00206 24-631) above
Chain of Recombinant human RAGE (rhRAGE), Ala23-Ala344 (Q15109 23-344): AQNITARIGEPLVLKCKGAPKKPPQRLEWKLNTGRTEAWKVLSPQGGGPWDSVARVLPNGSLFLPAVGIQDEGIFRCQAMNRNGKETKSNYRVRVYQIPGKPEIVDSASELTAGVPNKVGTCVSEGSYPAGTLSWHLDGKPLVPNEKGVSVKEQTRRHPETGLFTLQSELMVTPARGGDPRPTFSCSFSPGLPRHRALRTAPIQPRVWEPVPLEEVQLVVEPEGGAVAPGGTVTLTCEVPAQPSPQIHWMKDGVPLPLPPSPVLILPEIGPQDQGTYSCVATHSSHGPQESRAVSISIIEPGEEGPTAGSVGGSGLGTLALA
Chain of TLR4/MD2 (Homo sapiens) (O00206 24-839): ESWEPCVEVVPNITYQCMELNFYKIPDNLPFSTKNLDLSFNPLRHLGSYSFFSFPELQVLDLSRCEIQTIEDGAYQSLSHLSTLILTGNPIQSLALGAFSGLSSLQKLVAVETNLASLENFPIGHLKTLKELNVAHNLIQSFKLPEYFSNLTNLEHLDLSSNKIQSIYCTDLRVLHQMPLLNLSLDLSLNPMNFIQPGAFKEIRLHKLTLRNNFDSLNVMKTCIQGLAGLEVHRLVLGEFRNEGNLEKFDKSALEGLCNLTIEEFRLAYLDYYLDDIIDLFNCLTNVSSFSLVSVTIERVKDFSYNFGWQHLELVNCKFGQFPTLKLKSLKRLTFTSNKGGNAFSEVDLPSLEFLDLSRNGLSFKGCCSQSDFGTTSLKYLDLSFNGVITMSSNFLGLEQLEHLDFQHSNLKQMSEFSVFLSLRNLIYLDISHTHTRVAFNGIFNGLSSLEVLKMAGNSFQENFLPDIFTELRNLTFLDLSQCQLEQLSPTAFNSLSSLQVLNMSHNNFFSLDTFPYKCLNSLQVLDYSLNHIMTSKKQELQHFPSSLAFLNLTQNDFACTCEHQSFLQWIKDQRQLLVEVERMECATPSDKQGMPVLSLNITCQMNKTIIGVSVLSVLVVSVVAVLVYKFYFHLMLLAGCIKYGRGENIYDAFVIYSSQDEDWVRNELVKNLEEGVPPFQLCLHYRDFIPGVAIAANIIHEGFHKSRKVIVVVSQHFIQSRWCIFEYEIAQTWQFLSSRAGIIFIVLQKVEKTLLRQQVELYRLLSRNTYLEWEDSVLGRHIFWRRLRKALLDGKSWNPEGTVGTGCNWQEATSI

Molecule: HMGB1 (from UniProt P09429)
Kd (MD2 (Homo sapiens)): 8 nM | Kd (TLR4/MD2 (Homo sapiens)): 1500 nM

Molecule: MD2 (from UniProt Q9Y6Y9)
Kd (TLR4 (Homo sapiens)): 62.9 nM

Kd [1]: 302 nM | Kd [2]: 53.7 nM
B1: Recombinant human MD2 (rhMD2), Glu17-Asn160 (natural protein, UniProt Q9Y6Y9 17-160, looked up)
chain: EAQKQYWVCNSSDASISYTYCDKMQYPISINVNPCIELKRSKGLLHIFYIPRRDLKQLYFNLYITVNTMNLPKRKEVICRGSDDDYSFCRALKGETVNTTISFSFKGIKFSKGKYKCVVEAISGSPEEMLFCLEFVILHQPNSN

Molecule: B2
Kd [2]: 617 nM | Kd [3]: 239 nM | Kd [4]: 33.1 nM | Kd [5]: 258 nM

— PMC3826915 (Nature medicine, 2013)
